Patent US20140341888A1 (CORNING, published 2014)
One block for each binder: values may come before it.

What was measured:
EGFR-AP fusion protein = target: T1, EGFR-AP fusion protein (UniProt P00533 25-645); assay: SPR (BIAcore), EGFR-AP immobilized, antibody 1.5 nM to 100 nM
T1 construct: Immobilized on the BIAcore sensor chip; construct not described

[1] = target: T2, recombinant soluble hTNFSF13b (native) (human, UniProt Q9Y275 134-285); assay: SPR (BIAcore 2000), antibody captured by anti-human IgG Fc, hTNFSF13b from 50 nM, Langmuir 1:1 model
T2 construct: also called huTNFSF13b; Human TNFSF13b

Kd (EGFR-AP fusion protein): 0.32 nM | koff (EGFR-AP fusion protein): 0.00058 s⁻¹ | kon (EGFR-AP fusion protein): 1.86e+06 M⁻¹ s⁻¹
B1: IMC-11F8 IgG (antibody, V domains shown)
VH: QVQLQESGPGLVKPSQTLSLTCTVSGGSISSGDYYWSWIRQPPGKGLEWIGYIYYSGSTDYNPSLKSRVTMSVDTSKNQFSLKVNSVTAADTAVYYCARVSIFGVGTFDYWGQGTLVTVSS
VL: EIVMTQSPATLSLSPGERATLSCRASQSVSSYLAWYQQKPGQAPRLLIYDASNRATGIPARFSGSGSGTDFTLTISSLEPEDFAVYYCHQYGSTPLTFGGGTKAEIK

Kd [1]: 38 µM
B2: 4A5-3.1.1-B4 (antibody, V domains shown)
VH: QVQLQQWGAGLLKPSETLSLTCAVYGGSFSGYYWSWIRQPPGKGLEWIGEINHSGSTNYNPSLKSRVTISVDTSKNQFSLKLSSVTAADTAVYYCARGYYDILTGYYYYFDYWGQGTLVTVSS
VL: EIVLTQSPATLSLSPGERATLSCRASQSVSRYLAWYQQKPGQAPRLLIYDASNRATGIPARFSGSGSGTDSTLTISSLEPEDFAVYYCQQRSNWPRTFGQGTKVEIKR
